These results are taken from article PMC4102767.

Test [1] addresses Dpb11 (UniProt P47027). Description: Flag purification, SILAC quantitative MS. To be noted: reference: wild type; sites S486.
The target of test [2] is Dpb11 (UniProt P47027). Description: anti-Flag co-IP, Western blot. To be noted: reference: wild type (undamaged or MMS); sites S486. A general note: In western blotting, separated proteins are transferred to a membrane and probed.

Turning to Slx4 (from UniProt Q12098) S486A, the fold change entry in the test with Dpb11 [1] was “weaker”.

Turning to “Slx4 (from UniProt Q12098) S486A (undamaged or MMS)”, the “binding against the reference” value with Dpb11 [2] is “weaker”.
